Data published in the supplement of paper PMC10724198.
± gives the standard deviation of the averaged measurements.

Test system: Saccharomyces cerevisiae
Test: protein stability index of tFT-peptide fusion (C-terminal peptide) (PSI (0-1 scale)); higher = more stable (slower turnover)
Settings: temperature: 30 C
Method: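 MPS profiling in S. cerevisiae of the yeast C-terminome library: the last 12 aa of each annotated ORF are fused to the C-terminus of a sfGFP-mCherry timer, after a GGGS linker. Cells are FACS-sorted into 8 mCherry/sfGFP bins and deep-sequenced. PSI runs from 0 (unstable) to 1 (stable); wild type and das1Δ backgrounds, two technical replicates each.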

[1] = genetic background: das1 deletion

| Sequence | protein stability index [1] | protein stability index (genetic background: wild type) |
| --- | --- | --- |
| THQKKIAKKKHQ [YPR015C C-terminal 12 aa] | 0.741 ± 0.053 | 0.695 ± 0.014 |
| KGLVIVKDAIIL [PFF1 C-terminal 12 aa] | 0.678 ± 0.027 | 0.697 ± 0.01 |
| LSKKDYSIDSIE [TPO3 C-terminal 12 aa] | 0.726 ± 0.011 | 0.6981 ± 0.0023 |
| DAAIVKKYKNKT [NUP57 C-terminal 12 aa] | 0.687 ± 0.025 | 0.692 ± 0.033 |
| ILLTPNNHGEMK [BDH1 C-terminal 12 aa] | 0.689 ± 0.03 | 0.684 ± 0.011 |
| EGVSIIESTFIN [YLR225C C-terminal 12 aa] | 0.693 ± 0.012 | 0.68 ± 0.051 |
| ILISTIYAHCSS [HFD1 C-terminal 12 aa] | 0.577 ± 0.0076 | 0.489 ± 0.015 |
| LFFGGEKVHSLK [NGL3 C-terminal 12 aa] | 0.7279 ± 0.0017 | 0.715 ± 0.026 |
| DLSSFFNYRSVQ [SPH1 C-terminal 12 aa] | 0.75 ± 0.015 | 0.7374 ± 0.0021 |
| IKKGTPNNIAFL [YJL197C-A C-terminal 12 aa] | 0.7027 ± 0.0063 | 0.704 ± 0.017 |
| TYCEKYHVPSIQ [YAE1 C-terminal 12 aa] | 0.6915 ± 0.0042 | 0.677 ± 0.04 |
| GPSVMCTLYLTF [ARE2 C-terminal 12 aa] | 0.5849 ± 0.0035 | 0.59105 ± 0.00058 |
| YLADELSKALLA [RFA1 C-terminal 12 aa] | 0.673 ± 0.0099 | 0.6545 ± 0.0044 |
| DPERQNNSNFYN [SMC6 C-terminal 12 aa] | 0.702 ± 0.052 | 0.686 ± 0.026 |
| CKATSLLLIPEG [YBL108W C-terminal 12 aa] | 0.675 ± 0.018 | 0.659 ± 0.021 |
| DENRHSIRIPFN [USB1 C-terminal 12 aa] | 0.704 ± 0.015 | 0.688 ± 0.013 |
| YPAREGEVLRPN [AKR2 C-terminal 12 aa] | 0.675 ± 0.025 | 0.697 ± 0.017 |
| KMQGKYIKKKAM [YNR001W-A C-terminal 12 aa] | 0.7139 ± 0.0039 | 0.385 ± 0.024 |
| KGAFQKVAATSR [RPL24A C-terminal 12 aa] | 0.7102 ± 0.0065 | 0.685 ± 0.0079 |
| SSSSTSSSATKN [TPS1 C-terminal 12 aa] | 0.703 ± 0.017 | 0.685 ± 0.047 |
| FDALMNNDGDSD [TIF4632 C-terminal 12 aa] | 0.68 ± 0.016 | 0.6696 ± 0.0037 |

| Sequence | protein stability index [1] | protein stability index (genetic background: wild type) |
| --- | --- | --- |
| EVSTEDTVHDEL [EUG1 C-terminal 12 aa] | 0.675 ± 0.0097 | 0.683 ± 0.041 |
| DEGVSLVFEVPN [SQT1 C-terminal 12 aa] | 0.683 ± 0.02 | 0.677 ± 0.012 |
| LSNQNSPLFLYH [YHR175W-A C-terminal 12 aa] | 0.7053 ± 0.0058 | 0.705 ± 0.015 |
| LPVSDSRCYYIL [YML031C-A C-terminal 12 aa] | 0.6921 ± 0.0021 | 0.343 ± 0.013 |
| RQLGSKQRKHRL [ECI1 C-terminal 12 aa] | 0.786 ± 0.021 | 0.82 ± 0.026 |
| SNSSKNRMNNYR [SPT6 C-terminal 12 aa] | 0.702 ± 0.017 | 0.721 ± 0.034 |
| KITEKWTHKDFK [NOP53 C-terminal 12 aa] | 0.688 ± 0.027 | 0.719 ± 0.058 |
| FQREQVAKGGLL [CHL4 C-terminal 12 aa] | 0.717 ± 0.016 | 0.69 ± 0.057 |
| ITEVNVSLEEKL [FHL1 C-terminal 12 aa] | 0.6842 ± 0.0013 | 0.7078 ± 0.0013 |
| SEEKRRLAPADI [YOL019W-A C-terminal 12 aa] | 0.68 ± 0.02 | 0.691 ± 0.024 |
| AERFDNTEVLHL [STE13 C-terminal 12 aa] | 0.7011 ± 0.0037 | 0.689 ± 0.035 |
| HPNIDALLKKTE [MST27 C-terminal 12 aa] | 0.686 ± 0.014 | 0.654 ± 0.035 |
| DLAYQYVRALEL [SRB2 C-terminal 12 aa] | 0.683 ± 0.013 | 0.673 ± 0.0094 |
| FGSNVNQQFNFN [SRP1 C-terminal 12 aa] | 0.723 ± 0.0085 | 0.719 ± 0.032 |
| VMKAKRKFNPYT [RRP7 C-terminal 12 aa] | 0.6859 ± 0.0013 | 0.6974 ± 0.0025 |
| SFFLRNFFPSLF [YDL159W-A C-terminal 12 aa] | 0.756 ± 0.026 | 0.246 ± 0.022 |
| TRDAPRERSPTR [NPL3 C-terminal 12 aa] | 0.716 ± 0.016 | 0.65 ± 0.018 |
| NPGFIVEKRTID [MRPL33 C-terminal 12 aa] | 0.697 ± 0.035 | 0.737 ± 0.0098 |
| EEFSSGDYSMDY [RIE1 C-terminal 12 aa] | 0.7024 ± 0.006 | 0.66 ± 0.025 |
| VYLSVIILMGNG [EMA17 C-terminal 12 aa] | 0.212 ± 0.024 | 0.247 ± 0.012 |
| TQSTVIATTSSV [NDL1 C-terminal 12 aa] | 0.6904 ± 0.0063 | 0.694 ± 0.027 |

| Sequence | protein stability index [1] | protein stability index (genetic background: wild type) |
| --- | --- | --- |
| FGGVRSPKMRRL [MRPS18 C-terminal 12 aa] | 0.72 ± 0.017 | 0.681 ± 0.042 |
| IYQPSRNRLVRY [YBR076C-A C-terminal 12 aa] | 0.707 ± 0.025 | 0.7018 ± 0.0025 |
| NDLITYMTKAAK [CYC7 C-terminal 12 aa] | 0.722 ± 0.031 | 0.756 ± 0.14 |
| KYFHEDVSEDAY [MET5 C-terminal 12 aa] | 0.707 ± 0.028 | 0.699 ± 0.013 |
| PLQWLSTWDIAP [PMT6 C-terminal 12 aa] | 0.787 ± 0.02 | 0.757 ± 0.021 |
| TLNVSNISHYSL [GAL80 C-terminal 12 aa] | 0.7033 ± 0.0016 | 0.704 ± 0.0075 |
| KAIEYFEEYQCW [FRE2 C-terminal 12 aa] | 0.722 ± 0.048 | 0.704 ± 0.052 |
| KKIVIIYVVRFH [BSC4 C-terminal 12 aa] | 0.304 ± 0.015 | 0.339 ± 0.01 |
| PFEDKFEIHDER [OPY2 C-terminal 12 aa] | 0.74255 ± 0.00063 | 0.7692 ± 0.00091 |
| RPMQHMYINNFT [YAL026C-A C-terminal 12 aa] | 0.71914 ± 0.00059 | 0.672 ± 0.011 |
| KYESATASALVN [RPS13 C-terminal 12 aa] | 0.697 ± 0.019 | 0.702 ± 0.015 |
| SLCMEAGLVNEN [YCF1 C-terminal 12 aa] | 0.6959 ± 0.0021 | 0.663 ± 0.037 |
| ENVEEDKEVHTN [PBI2 C-terminal 12 aa] | 0.675 ± 0.036 | 0.6976 ± 0.0046 |
| EALVKQITSVKQ [SCC4 C-terminal 12 aa] | 0.6973 ± 0.006 | 0.701 ± 0.015 |
| NGRYIDTEFESM [LCB4 C-terminal 12 aa] | 0.6854 ± 0.0012 | 0.681 ± 0.022 |
| ELAYKSFYALLD [VPS28 C-terminal 12 aa] | 0.691 ± 0.019 | 0.702 ± 0.045 |
| TELRHKRTGGKH [ILV2 C-terminal 12 aa] | 0.691 ± 0.0092 | 0.7268 ± 0.002 |
| TSGGSIVLKGSS [YGR068W-A C-terminal 12 aa] | 0.701 ± 0.026 | 0.6688 ± 0.0037 |
| LYVTVFNRSDEA [AVT7 C-terminal 12 aa] | 0.6773 ± 0.0036 | 0.6811 ± 0.0037 |
| LITSHCCYWNKR [YBL039C-A C-terminal 12 aa] | 0.6928 ± 0.0067 | 0.52 ± 0.033 |
| IFFILYTLFKLF [SFT1 C-terminal 12 aa] | 0.422 ± 0.0091 | 0.199 ± 0.01 |

| Sequence | protein stability index [1] | protein stability index (genetic background: wild type) |
| --- | --- | --- |
| MFKFNVHKKSKV [TAD2 C-terminal 12 aa] | 0.72 ± 0.015 | 0.758 ± 0.048 |
| RNQNSDRLNFQP [YBR138C C-terminal 12 aa] | 0.705 ± 0.0061 | 0.675 ± 0.016 |
| DYKLLKELASQV [GLT1 C-terminal 12 aa] | 0.66531 ± 0.00065 | 0.635 ± 0.054 |
| VEGGGVQYTIVS [YDL023C C-terminal 12 aa] | 0.679 ± 0.0039 | 0.669 ± 0.0067 |
| ARNIWRLFLQKI [YLR126C C-terminal 12 aa] | 0.705 ± 0.058 | 0.168 ± 0.0098 |
| QHYDEYYHELTN [PHO8 C-terminal 12 aa] | 0.6964 ± 0.0064 | 0.68262 ± 0.00046 |
| LAEVIGVLLKDM [AIM10 C-terminal 12 aa] | 0.69483 ± 0.00037 | 0.646 ± 0.038 |
| CLRKSPPFVHNT [YMR084W C-terminal 12 aa] | 0.6939 ± 0.0044 | 0.703 ± 0.022 |
| FDDSSSVSSKSD [GPC1 C-terminal 12 aa] | 0.717 ± 0.014 | 0.695 ± 0.027 |
| EEADSLYISMGL [LCD1 C-terminal 12 aa] | 0.709 ± 0.021 | 0.701 ± 0.012 |
| LLSLPSSTLTKS [YIL068W-A C-terminal 12 aa] | 0.703 ± 0.025 | 0.702 ± 0.0086 |
| RAGRSTLKETPQ [CCT6 C-terminal 12 aa] | 0.673 ± 0.018 | 0.692 ± 0.071 |
| LKPWEGRIYLVK [MAL12 C-terminal 12 aa] | 0.6483 ± 0.0018 | 0.697 ± 0.022 |
| DRKRRKLLWYQA [MRPL20 C-terminal 12 aa] | 0.718 ± 0.045 | 0.2489 ± 0.00046 |
| TTVPIVSKKRQK [POP3 C-terminal 12 aa] | 0.685 ± 0.033 | 0.699 ± 0.01 |
| GINAGEIEIPEN [RPL12A C-terminal 12 aa] | 0.692 ± 0.0082 | 0.698 ± 0.012 |
| SFPIASSTTQTS [NST1 C-terminal 12 aa] | 0.696 ± 0.021 | 0.689 ± 0.0087 |
| SMVSCLLTLYVL [GTT3 C-terminal 12 aa] | 0.4741 ± 0.0017 | 0.4796 ± 0.0038 |
| MGDEYVSSDEDF [HEF3 C-terminal 12 aa] | 0.7279 ± 0.0024 | 0.686 ± 0.054 |
